Experiment [1] deals with T1, human CCR3 (human, UniProt P51677 1-355).
T1 construct: whole, on cells; also called chemokine receptor-3; hCCR3
T1 sequence (looked up): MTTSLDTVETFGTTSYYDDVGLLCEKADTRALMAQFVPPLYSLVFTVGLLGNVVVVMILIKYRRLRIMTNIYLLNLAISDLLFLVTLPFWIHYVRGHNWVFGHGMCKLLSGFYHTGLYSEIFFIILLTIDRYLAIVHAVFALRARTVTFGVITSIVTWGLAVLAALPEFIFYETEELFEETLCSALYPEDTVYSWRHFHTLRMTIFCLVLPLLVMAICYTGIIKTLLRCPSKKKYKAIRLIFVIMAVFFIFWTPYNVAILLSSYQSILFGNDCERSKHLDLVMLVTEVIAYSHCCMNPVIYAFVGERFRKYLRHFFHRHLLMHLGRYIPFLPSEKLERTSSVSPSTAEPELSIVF
In words: displacement of 0.1 nM 125I-eotaxin from purified human eosinophils (CCR3). On the procedure:
(§1) After washing with binding buffer containing 0.5M NaCl, the percentage of radio-iodinated ligand remaining bound was calculated compared to assays in which no unlabeled chemokine was added. Each point is the mean of three identical incubations and standard error is included. (C) 2×10⁵ purified eosinophils were incubated for 2 hrs at room temperature in azide-containing binding buffer with 45 nM ¹²⁵I-Met-Ckβ7* plus 500 nM of the various unlabeled chemokines indicated at the bottom of the graph. Cells were washed twice with PBS and remaining ¹²⁵I-Met-Ckβ7* bound was counted. Results are the mean of three identical incubations represented as a percentage of the binding seen in the absence of competitor, and standard error is included.
(§2) Eosinophil ¹²⁵I-Chemokine Binding Assay. 2×10⁵ purified eosinophils were placed in each well of a 96 well plate in binding buffer (1 mM CaCl₂, 5 mM MgCl₂, 0.5% BSA, 0.05% sodium azide, 50 mM Hepes (pH 7.5)). Iodinated chemokine (final concentration of 0.1 nM ¹²⁵I-eotaxin or ¹²⁵I-MCP4, specific activity 2200 Ci/mmol (NEN, Boston, Mass.)) was added in the absence or presence of unlabeled chemokines to a final volume of 100 μl. […] The plates were dried and counted after addition of 50 μl of liquid scintillant in each well. […] Cells were then washed twice with ice cold PBS and counted in a Beckman Gamma 5500B counter. […]

Experiment [2] addresses T1, human CCR3. In words: homologous displacement of 0.1 nM 125I-MCP4 from purified human eosinophils (CCR3). The procedure:
as §1, §2

In experiment [3] the target is T1, human CCR3. In words: displacement of 0.1 nM 125I-MCP4 from purified human eosinophils (CCR3). On the procedure:
as §1, §2

The target of experiment [4] is T1, human CCR3. In words: homologous displacement of 0.1 nM 125I-eotaxin from purified human eosinophils (CCR3). On the procedure:
as §1, §2

For experiment [5], the target named is T1, human CCR3. The experiment in a line: displacement of 0.1 nM 125I-eotaxin from 2x10^5 purified human eosinophils (CCR3), 60 min at room temperature. The procedure:
as §1, §2

Experiment [6] concerns the target T2, human D6 chemokine receptor (human, UniProt O00590 1-384).
T2 construct: whole, on cells
T2 sequence (looked up): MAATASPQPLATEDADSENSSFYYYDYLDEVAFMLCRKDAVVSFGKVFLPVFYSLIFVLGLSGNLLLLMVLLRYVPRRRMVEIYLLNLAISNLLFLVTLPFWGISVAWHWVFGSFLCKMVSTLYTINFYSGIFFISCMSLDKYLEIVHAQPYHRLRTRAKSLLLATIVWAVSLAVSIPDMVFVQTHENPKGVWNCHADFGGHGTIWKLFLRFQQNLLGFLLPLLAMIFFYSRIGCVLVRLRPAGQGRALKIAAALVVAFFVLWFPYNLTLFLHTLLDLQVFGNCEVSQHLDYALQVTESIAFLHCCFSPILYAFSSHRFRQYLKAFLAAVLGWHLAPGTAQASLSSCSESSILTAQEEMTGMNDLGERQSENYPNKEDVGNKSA
The experiment in a line: displacement of 125I-MIP1α in binding assays on CHO cells expressing D6 (not shown). For orientation: Loss of bound radioactivity is the signal in a displacement assay; it reports binding, not function.

B1: MCP4 (ligand)
chain: not shown
notes: also called monocyte chemotactic protein-4; Ckβ-10
In general, IC50 refers to the concentration needed to halve the response being measured. Low readings indicate higher potency, high ones lower potency. For the molecule B1, the results for the IC50 with human CCR3 [1] and with human CCR3 [2] were ~60 nM and ~25 nM, respectively.

B2: eotaxin (ligand)
chain: not shown
notes: also called human eotaxin
Take B2: the values for the 50% inhibitory concentration (IC50) with human CCR3 [3] and with human CCR3 [4] were ~5 nM and ~10 nM, respectively.

B3: Met-Ckβ7* (ligand)
chain: MQVGTNKELCCLVYTSWQIPQKFIVDYSETSPQCPKPGVILLTKRGRQICADPNKKWVQKYISDLKLMPEA
notes: E. coli-produced modified form of Ckβ7/MIP4: signal peptide removed, N-terminal Ala of the mature protein replaced by Met, C-terminus LKLMPEA; also called Met-22-87-Met-Pro-Glu-Ala; hg00701-e2
On to B3, for which the half-inhibitory concentration (IC50) with human CCR3 [5] is ~6 nM; with human CCR3 [3] it was ~5 nM. Also, the binding result in experiment [6] was “no binding (tested: 700 nM)”.

Source of the values: US20030143192A1 (Human Genome Sciences, published 2003).
